Test results published in the nanobody polyreactivity screen of Harvey et al. (2022).

Assay: yeast display, Sf9 membrane polyspecificity reagent, FACS + sequencing; frameworks hold sequencing errors
Method in brief: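 Using colony PCR, genes from sorted yeast display clones were amplified, then sequenced on MiSeq at 2 × 250 and filtered by CDR length. The clones had been stained with 10% biotinylated, detergent-solubilized Sf9 membrane reagent for 1 hour at 4 °C and sorted by FACS into low and high (top ~1%) gates on anti-HA and streptavidin fluorescence. Polyreactivity labels come from the gate of origin.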

Sequence	polyreactivity (PSR sort gate)
QVQLVESGGGLVQAGSSLRLSCAASGRTLIYNAMGWYRQAPGKERELVASINRRGDSTYYADSVKGRFTISRDNAKNTVYLQMNSLKPEDTAVYYCAKVLYGGYPENRYFVGWGRDYWGQGTQVTVSS	high polyreactivity
QVQLVESGGGLVQAGSSLRLSSAASGSIIGVNAKGRYRQAAGKERELVAAISSTGGSTYYADSVKGRYTISRDNAKNTVFLKMNSLKPDDTAVYYCNTDYSKSIGDGYSGFDYWGQGTQLTVSS	low polyreactivity
QVQLVESGGGLVQAGSTLRLSCAASGRIFDLYTMGWYRQAPGKERELVAAIRWSDGSTYYADSVKGRFTISRDYAKNTVYLQMNSLKPEDTAVYYCAADTRTSYYNDDYDYWGQGTQVTVSS	low polyreactivity
QVQLVESGGGLVQAGVRLRLSCAASGIIFRTYAMGWYRRAPGKERELVADITWSDGSTYYADSVKGRFTISRDNAKNTVYLQMNSLKPEDTAVYYCNADVLSDDSWWSYDYWGQGTQVTVSS	high polyreactivity
QVQLVESGGGLVQAGVRLRLSCADSGSTFYLNAIGWYRQAPGKERELVAAITRVGRTYYADSVKGRFTISRDNAKNTVYLQMNSLKPEDTAVYYCNALGHYKLWGLGTQVTVSS	high polyreactivity
QVQLVESGGGLVQAGVSHRLSCAASGRTFPGNAMGWYRQAPGKEREFVAAISYSGGRTYYADSVKGRFTISRDNAKNTVYLLMNSLKPEDTAVYYCAKRIVQPSVAAYYYWGLGTQVTVSS	high polyreactivity
QVQLVESGGGLVQAGVSLRISCAASGFIFYYYAMGWYRQAPGKERELVAAISWSGGSTYYADSVKGRFTISRDNAKNTVYLQLNSLKPEDTSVYYCNARFRYARYSQRYDYWGQGTQVTVSS	high polyreactivity
QVQLVESGGGLVQAGVSLRISCAASGSTFRGYVMGWYRPAPGKERELVAAISRSGTSTYYADSVKGRFTISRDNAKNTVYLQINSLKPEDTAVYYCAAQLYGHGEDYWGQGTQVTVSS	high polyreactivity
QVQLVESGGGLVQAGVSLRLICAASGLTFQYNAMGWYRQAPGKEREMVASINSGGSTDYADSVKGRFTISRDNAKNTVYLQMNSLKPEDTAVYYCATSGYWYSASYGYEYWGQGTQVTVSS	low polyreactivity
QVQLVESGGGLVQAGVSLRLSCAASGFIFYRYAMGWYRQAPRKERELVAAISWGGGSTTYYADSVKGRFTISRYNAKNTVYLQMNSLKPEDTAVYYCAKLRYPYLFWDDSEYWGQGTQVTVSS	low polyreactivity
QVQLVESGGGLVQAGVSLRLSCAASGFSFAKNAMAWYRQAPGKERELVADITYSGGSTYADSVKGRFTISLDNAKNTVYFQMNSLKPEDTAVYYCAADSRRRSCYDYWVQGTQVTVSS	low polyreactivity
QVQLVESGGGLVQAGVSLRLSCAASGGTFSRNAMGWYRQAPGKERELVAAINSSGVSTSYADSVKGRFTISRDNAKNTVYLQMNSLKPEDTAVYYCAAETSSAEVDYWGQGTQVTVSS	low polyreactivity
QVQLVESGGGLVQAGVSLRLSCAASGIFRRYAMGWYIQAPGKERELVAAISSNGGSTYYADSVKGRFTISRDNAKNTVYLQMNSLKPEDTAVYYCNADVYVWNYYYWGQGTQVTVSS	high polyreactivity
QVQLVESGGGLVQAGVSLRLSCAASGLIFVFYAMGWYRQAPGKERELVAAISRSGTSTYADSVKGRFTISRDNAKNTVYLQMNSLKPADTAVYYCNAYRYYSPYGYWGQGTQVTVSS	low polyreactivity
QVQLVESGGGLVQAGVSLRLSCAASGRIFNGNAMGWYRQAPGIEWELVATITRGGGSTYYADSVKGRFTISRDNAKKTVYLQMNSLKPEDTAVYSCNVPPPTQVRYRSDHWGQGTQVTVSS	low polyreactivity
QVQLVESGGGLVQAGVSLRLSCAASGRTFALNVMGWYRQAPGKERELVAAISRSGGSTYYAESVKGRFTISRDNAKNTVYLQMNSLKPEDTAVYYCAAATHYQSYNRRDYWGQGTQVTVSS	high polyreactivity

Sequence	polyreactivity (PSR sort gate)
QVQLVESGGGLVQAGVSLRLSCAASGRTFEYNAMGWYRQAPGKERELVATIRYSGTSTYADSVKGRFTISRDNAKNTVYLQMNSLKPEDSAVYYFAKQVRYYGYKYNYWGLGTQVTVSS	high polyreactivity
QVQLVESGGGLVQAGVSLRLSCAASGRTFFLYAMGWYRQAPGKERELVARISTSGGGTYYADSVKGRFTISRDNAKYTVYLQMNSLKPEDTAVYYCAARTFRGQRRAGGYDYWGQGTQVTVSS	high polyreactivity
QVQLVESGGGLVQAGVSLRLSCAASGRTFRHNVMGRYRQAPGKERELVAAISYSGGSTHYADSVKGRFTISRDNAKNTVYLQMNSQKPEDTAVYYCNRYSYDSHFLYPFRGHDYWGQGTQVTVSS	low polyreactivity
QVQLVESGGGLVQAGVSLRLSCAASGRTFRRYVMGWNRQAPGKERELVASITRGTGTDYADSVKGRFTISRDNRMNTVYLQMNSLKPEDTAVYYGNVKFGQPIYGEFDYWGQGTQVTVSS	low polyreactivity
QVQLVESGGGLVQAGVSLRLSCAASGRTFYGNAMGWYRQAPGKERELVAAISRSGGRTYYADSVKGRFTISRDNAKNTVYLQMNSLKPEDTAVYYCAKDYYYPSHTYGYWGQGTQVTVSS	high polyreactivity
QVQLVESGGGLVQAGVSLRLSCAASGSIFGFNAMGWYRQAPGKEWELVAAINNGGSTNYADSVKGRFTISRDNAKNTVYLQMNSLKPEDTAVYYFAAERWFYRSKFDYWGQGTQVTVSS	high polyreactivity
QVQLVESGGGLVQAGVSLRLSCAASGSTFRKYTMGWSRQAPGKERELVAAITYRGDRTYYADSVKGRFTISRDNAKNTVFIQMNSLIPEDTAVYYCASTSYYGAVWYIFYYWGQGTQVTVSS	high polyreactivity
QVQLVESGGGLVQAGVSLRLSCAASGSTFRRYAMGWYRQAPGKAWEISTSDGSTYYADSVKGRFTISRDNAKNTVYLQMNSLKPEDTAVYYCAADGYRQLIEDITDDYWGQGTQVTVSS	low polyreactivity
QVQLVESGGGLVQAGVSLRLSCASSGIIFPDYAMGWYRQAPGKERELVAAITRSGGRTFYADSVKGRFTISRDTAKNSVYLQMKSLKPEDTAVYYCAVSYSYLYYYWGQGTQVTVSS	high polyreactivity
QVQLVESGGGLVQAGVSLRLSCPAGGSTFYKYVMGWYRQAPGKEREVVAAISVNGGDTYYADSVKGRFTISRDNAKNTVSVQMNSLNPEDTAVYYCAAERGVDLSARYGDNDNWGQGTQVTVTS	low polyreactivity
QVQLVESGGGLVQAGVSLRLSCSASGLTFRPNAIGWYRQAPGKERELVAAITWSGGRTYYADSVKGRFTISRDNATNTVYFQMNSLKPEDTAVYYCAAVPLRNRWPNSWPALDYWGQVTQVTVSS	high polyreactivity
QVQLVESGGGLVQALGSLRLSCAASGSIFQRNALGWYRLAPGKERELVAAISRSGGSTYYADSVKGRFTISRDNAKNTVYCQMNSLQPEDTAVYYCAAVHFFWGYDYWGQGTQVTVSS	high polyreactivity
QVQLVESGGGLVQARCSLRLSCDASGSIFPHYAMGWYRQAPGKEREFVATISGSTGRTYYADSVKGRFTISRDYAKNTVYLQMNSLKTEDTAVYYCATSVGYYLPPIKYDYWGQGTQVTVSS	low polyreactivity
QVQLVESGGGLVQARGRLRLSFAASGSIFSTNAMGWYRQATGKERELVAAISSSDGITYYADSVKGRFTISRDNAMNTVYLQMNSLKPEDTAVYYCAAEYAYGIEESSAYNIYFYWGQGTQVTVSS	high polyreactivity
QVQLVESGGGLVQARGSHRLSCAASGRTFVTNAMGWYRQAPGKERELVAAIRWSSDSTYYADSVKGRFTISRVIAKNTVYLQMNSLKPEYTAVYYCAARIPKQQGYGYWGQGTQVTVSS	high polyreactivity
